According to article PMC3393750, “Small Molecule Inhibitors of the LEDGF Site of Human Immunodeficiency Virus Integrase Identified by Fragment Screening and Structure Based Design” (PLoS ONE, 2012):

B1: Hexa-His tagged full length HIV IN (enzyme)
chain: FLDGIDKAQEEHEKYHSNWRAMASDFNLPPVVAKEIVASCDKCQLKGEAMHGQVDCSPGIWQLDCTHLEGKVILVAVHVASGYIEAEVIPAETGQETAYFLLKLAGRWPVKTVHTDNGSNFTSTTVKAACWWAGIKQEFGIPYNPQSQGVIESMNKELKKIIGQVRDQAEHLKTAVQMAVFIHNFKRKGGIGGYSAGERIVDIIATDIQTKELQKQITKIQNFRVYYRDSRDPVWKGPAKLLWKGEGAVVIQDNSDIKVVPRRKAKIIRDYGKQMAGDDCVASRQDED
notes: HIV-1 integrase, the cut product of the Gag-Pol polyprotein; also called His6-tagged IN; HIV integrase; source: E. coli BL21(DE3), purified (nickel HiTrap column)

What was measured:
[1] = molecular target: T1, FLAG epitope tagged LEDGF protein (UniProt O75475 1-530); assay: AlphaScreen or HTRF; His6-tagged IN (30 nM) on Ni-chelate donor beads, Flag-tagged LEDGF (30 nM) on anti-FLAG acceptor beads; 25 mM Tris-Cl pH 7.5, 25 mM NaCl, 5 mM MnCl2, 5 mM MgCl2, 5 mM BME, 50 ug/ml BSA, 0.05% Tween-20; 1 hour at 30°C; competition with untagged LEDGF; details: both partners purified
T1 construct: lens epithelium derived growth factor (LEDGF/p75), coded by the PSIP1 gene; also called FLAG-LEDGF; Flag-tagged LEDGF; source: E. coli BL21(DE3), purified (heparin column, SP column); not shown: FLAG, N-terminal, kept

[2] = molecular target: B1; assay: as above; details: both partners purified

Binder	binding result [1]	percent reduction of the AlphaScreen signal at a 1:1 molar ratio with FLAG-LEDGF [2] [%]
B1	binds	
Untagged LEDGF (natural protein, lens epithelium derived growth factor (LEDGF/p75), coded by the PSIP1 gene; source: E. coli, purified as described for FLAG-LEDGF) not shown		50
